The text below walks through data of US12648996B2, “RNA aptamers and uses thereof” (UNIVERSITY OF MIAMI, priority 2019, dated 2026).

One series deals with 4T1 mammary carcinoma. Kind of series: Therapeutic efficacy and toxicity in 4T1 bearing BALB/c mice. It is filed as in vivo, mouse. The method, then: FIGS. 7A-7C. TIMC-specific aptamers increase doxorubicin therapeutic index. […] Treatment was repeated 2 and 6 days later. […] Weight loss as measure of toxicity is reported. […] Survival was monitored.
Aptamer-Doxorubicin treatment: Aptamer-doxorubicin was prepared by making DNA template with the appropriate aptamer followed by a GC-rich primer sequence downstream (GC rich Sul3′, FIG. 11. From this template, RNA was transcribed and purified as described above. Doxorubicin (Sigma) was mixed with the RNA sequence as needed. Doxil (ALZA corporation) was purchased through the University of Miami pharmacy.
BALB/c mice were injected IV with the 4T1 luciferase thy1.1 tumor cell line. Treatment was started when tumors reached 5 mm of diameter and repeated 2 and 6 days later. Tumor growth and mice weight was reported. Mice were evaluated at least 3 times a week and humanely euthanized when tumor size index reached 150 mm^2 or if they lose >20% of initial weight due to chemotherapy or tumor growth in compliance with the IACUC policy and animal protocol. Data are expressed as tumor size index defined as the product of the main diameter with the perpendicular one.
Next, the therapeutic efficacies of doxorubicin delivered by TIMC-specific aptamers was compared by PEGylated liposomes (Doxil, the first clinically available nanoparticle that became the gold standard for doxorubicin treatment (34, 35)), and as unconjugated molecules. Briefly, 4T1 bearing BALB/c mice were treated with unconjugated DOX at dose high, or low dose, or with low doses of DOX conjugated to the TIMC-specific aptamer, or with Doxil (low dose—0.35 mg/kg). Treatment was repeated 2 and 6 days later. As additional controls, mice were treated with unconjugated aptamers, irrelevant aptamers conjugated with doxorubicin, or left untreated.

Series [1] has as its system tumor infiltrating myeloid cells (4T1 tumor). Kind of series: Flow cytometry of Cy3-labelled monoclonal aptamers on single cell suspensions from tumor and spleen of 4T1 bearing mice. Format: cell-based, mouse. To be noted: tumor and spleen of 4T1 challenged mice; splenic MDSCs and CD11b- cells p>0.05. An excerpt:
FIGS. 2A-C. […] FIG. 2A) Single cell suspensions from spleens and tumors of mice pooled from 3 mice bearing the 4T1 tumor (0.5 cm in diameter) were labelled with antibodies against CD11b, Ly6C, Ly6G and the 15 Cy3-labelled monoclonal aptamers identified by APTANI. Data derived from n=5 biological replica and derived from n=2 independent experiments. Aptamers 3 (SEQ ID NO: 3), 6 (SEQ ID NO: 6), 11 (SEQ ID NO: 11), and 14 (SEQ ID NO: 14) were chosen for further analysis and are in bold. *=P<0.001 by one-way ANOVA and post-hoc Holm-Sidak comparisons versus irrelevant aptamer. […] FIG. 2B) Secondary structure of aptamers 3 (SEQ ID NO: 3), 6 (SEQ ID NO: 6), 11 (SEQ ID NO: 11), and 14 (SEQ ID NO: 14). Binding motifs identified by APTANI are underlined in black. Fluorinated nucleotides are highlighted in gray. FIG. 2C) An equimolar mixture of the aptamers increases the specificity for tumor infiltrating myeloid cells. Pooled single cell suspension of tumor or spleen from 4T1 bearing mice were labeled with aptamers 3 (SEQ ID NO: 3), 6 (SEQ ID NO: 6), 11 (SEQ ID NO: 11), and 14 (SEQ ID NO: 14), or equimolar mixtures of each aptamer and analyzed by FACS. Data derived from n=3 independent experiments.
(§1) Flow cytometry: Aptamers were labeled with Cy3 using the Silencer siRNA Labeling Kit—Cy3 (Ambion) and 37 pmoles were used to label 5×10^6 cells unless otherwise specified. In some experiments biotinylated aptamers were labelled with streptavidin conjugated with Alexa Fluor 647 or Alexa Fluor 750 and purified from unbound aptamer by Ultra-4 centrifugal filters, […] (Millipore).
(§2) Dead cells were excluded by the analysis by using 4′,6′-diamidino-2-phenylindole (DAPI; Sigma) or Live/Dead dye (Invitrogen). Samples were read on a LSR2 equipped with 405 nm, 488 nm, 532 nm, and 635 nm lasers (BD Bioscience). Data were analyzed using FCS6 express software (Denovo-Software).
These 15 aptamers were tested by flow cytometry against single cell suspensions from tumor and spleen of mice challenged with the 4T1 tumor (FIG. 2A).
Next, whether an equimolar mixture of aptamers 3, 6, 11 and 14 was more efficient in recognizing TIMC as compared to each individual aptamer was evaluated.

Series [2] relates to TIMC from 4T1, CT26, RENCA, B16LU8, MCA203, E0771 tumors. Kind of series: Staining of single cell suspensions from tumor, bone marrow, spleen and lungs in multiple mouse tumor models. It is filed as cell-based. To be noted: BALB/c (4T1, CT26, RENCA) and C57Bl/6 (B16LU8, MCA203, E0771) tumor models.
Excerpt: as §1, §2
The binding properties of monoclonal RNA aptamers 3, 6, 11 and 14 were evaluated in other tumor models. Aptamers 3, 6, 11, or 14 single cell suspensions were stained from tumor, bone marrow, spleen, and lungs of BALB/c mice bearing the 4T1 mammary carcinoma, the CT26 colon carcinoma, or the RENCA renal carcinoma. Similar analysis was performed on single cell suspensions from C57Bl/6 mice bearing B16LU8 melanoma, MCA203 fibrosarcoma or E0771 mammary carcinoma.

Series [3] concerns 4T1 tumors and tissues arrays from naïve mice. Kind of series: Immunofluorescence microscopy on 4T1 tumors and tissues arrays from naïve mice. Also noted: species or system mouse. Here is the method: Immunofluorescence microscopy and Image cytometry: Fresh frozen tissue and tissues microarrays (AMSBIO) were fixed in 10% neutral-buffered formalin (BDH) for 15′ at RT, incubated with dextran sulfate sodium/PBS (1:2 m/V—Pharmacia biotech) for 30′ and washed with PBS. Tissues were then stained with Cy3-labelled aptamer (10 ug/ml) in PBS for 30′, masked with 2% BSA, and counterstained with antibodies and/or DAPI.
Specificity was further evaluated by immunofluorescence microscopy using 4T1 tumors and tissues arrays from naïve mice.

A short description of series [4]: Aptamer-based immunoprecipitation and mass spectrometry (target identification). To be noted: immunoprecipitation, mass spectrometry. The method, then:
(§3) FIG. 4A-4E. Characteristics of aptamers that preferentially recognize tumor infiltrating myeloid cells. FIG. 4A) Affinity of the aptamers for IL4 treated MSC2 cells was determined by FACS. Putative targets (ANXA4 and VIM) were identified via aptamer-based immunoprecipitation, SDS page, and mass spec analysis. Kds against ligands was determined by FACS against recombinant protein conjugated to epoxy beads. FIG. 4B) Epoxy beads conjugated with ANXA4 or irrelevant protein were stained with Cy3-labelled aptamer 3 or irrelevant aptamer and analyzed by FACS. FIG. 4C) Epoxy beads conjugated with vimentin or irrelevant protein were stained with Cy3-labelled aptamer 11 or irrelevant aptamer and analyzed by FACS. FIG. 4D) ANXA4 competitive assay. 5×10^5 IL4 treated MSC2 were stained with aptamer 3 in the presence or in the absence of recombinant ANXA4. FIG. 4E) MCS2 cells were transfected via the 4PD nanoparticle with shRNA against vimentin or with a scrambled shRNA. 4 days later cells were stained with Cy3-labelled aptamer 11 and DAPI. Pa=One-way ANOVA p value. Data derived from n=2 independent experiments.
The specificity of aptamer 3 for ANXA4 and aptamer 11 for vimentin were tested by competitive experiments (FIG. 4D) and with validated shRNA (29) (FIG. 4E), respectively.

Another series deals with T1, annexin A4 (ANXA4) (Mus musculus, UniProt P97429).
T1 construct: purchased myBiosource
T1 sequence (P97429 1-319): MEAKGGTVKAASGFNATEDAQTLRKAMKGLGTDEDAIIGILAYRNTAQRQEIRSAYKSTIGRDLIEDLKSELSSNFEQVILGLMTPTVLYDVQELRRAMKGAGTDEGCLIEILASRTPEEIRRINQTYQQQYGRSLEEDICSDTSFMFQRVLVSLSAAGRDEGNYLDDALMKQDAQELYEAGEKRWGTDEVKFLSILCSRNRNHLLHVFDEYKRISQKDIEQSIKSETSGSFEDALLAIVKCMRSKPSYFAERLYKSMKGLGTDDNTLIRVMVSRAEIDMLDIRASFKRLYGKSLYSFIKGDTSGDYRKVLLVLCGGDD
Kind of series: FACS of epoxy beads conjugated with recombinant ANXA4. It is filed as binding. To be noted: beads loaded with relevant or irrelevant recombinant proteins. Here is the method:
as §3
(§4) FIG. 8A and FIG. 8B. Affinity of aptamers #3 (SEQ ID NO: 3), #6 (SEQ ID NO: 6), #11 (SEQ ID NO: 11) and #14 (SEQ ID NO: 14) for IL4 treated MSC2 or their putative ligand. […] Binding was evaluated by FACS. […] Binding was evaluated by FACS. […]

The target of another series is T2, vimentin (VIM) (Mus musculus, UniProt P20152).
T2 construct: purchased myBiosource
T2 sequence (P20152 whole entry): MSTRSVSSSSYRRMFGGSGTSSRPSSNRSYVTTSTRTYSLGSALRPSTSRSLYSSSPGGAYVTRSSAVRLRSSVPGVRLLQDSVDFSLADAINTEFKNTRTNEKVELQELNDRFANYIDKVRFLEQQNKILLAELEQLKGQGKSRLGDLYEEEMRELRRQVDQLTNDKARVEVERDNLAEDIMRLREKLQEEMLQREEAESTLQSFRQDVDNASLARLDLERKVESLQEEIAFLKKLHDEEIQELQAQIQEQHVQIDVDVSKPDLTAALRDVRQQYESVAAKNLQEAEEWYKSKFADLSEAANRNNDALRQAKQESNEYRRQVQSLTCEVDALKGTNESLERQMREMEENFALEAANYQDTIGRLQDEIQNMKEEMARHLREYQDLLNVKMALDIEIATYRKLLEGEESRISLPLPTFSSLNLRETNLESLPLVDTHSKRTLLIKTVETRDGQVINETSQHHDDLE
Kind of series: FACS of epoxy beads conjugated with recombinant vimentin. Format: binding. The note with it: beads loaded with relevant or irrelevant recombinant proteins. Here is the method: as §3, §4

Regarding `COc1cccc2c1C(=O)c1c(O)c3c(c(O)c1C2=O)C[C@@](O)(C(=O)CO)C[C@@H]3O[C@H]1C[C@H](N)[C@H](O)[C@H](C)O1` [free doxorubicin, doxorubicin], the “toxicity (body weight loss)” value with 4T1 mammary carcinoma (free DOX high dose 3.5 mg/kg, DOX-aptamer 0.35 mg/kg) is given as “significant body weight loss”. Besides, the treatment related mortality with 4T1 mammary carcinoma (high doses of free doxorubicin) amounted to 15%. Also, in the series with 4T1 mammary carcinoma (i.v., repeated 2 and 6 days later, free DOX high dose 3.5 mg/kg, Doxil and DOX-aptamer low dose 0.35 mg/kg), the anti-tumor effect result was “No significant anti-tumor effect”.

B1: aptamer 3: 2'Fluoro-RNA aptamer, SEQ ID NO: 3, specific for tumor infiltrating myeloid cells; ligand ANXA4 (nucleic acid)
chain: GGAGGACGAUGCGGAUUACCAACUUGAACGCCGAGAGUGUGGUCACGUGUUCUGCAGACGACUCGCUGAGGAUCCGAGA
modifications: 2'-fluoro modified RNA, modified positions not given here, Cy3-labelled for binding assays
notes: ligand ANXA4
Turning to B1, the “specificity for tumor infiltrating vs splenic myeloid cells” value (“specificity … vs splenic myeloid cells” for short) in series [1] was “specific for tumor infiltrating myeloid cells”. For the same molecule, the “recognition of TIMC” value in series [2] is “able to recognize TIMC”. Besides, the “staining of tissues from naïve mice” value in series [3] is reported as “recognized hepatocytes at low intensity”. In series [4], the putative target entry is on record as “annexin A4 (ANXA4 isoform X1 P97495)”. For the same molecule, the “specificity for annexin protein” value in the series with annexin A4 (ANXA4) was “confirmed the specificity”.

B2: aptamer 6: 2'Fluoro-RNA aptamer, SEQ ID NO: 6, specific for tumor infiltrating myeloid cells (nucleic acid)
chain: GGAGGACGAUGCGGCAGGUGCGGGAUCUAAUGCGUAGACAGCCAUAUACUGACACAGACGACUCGCUGAGGAUCCGAGA
modifications: 2'-fluoro modified RNA, modified positions not given here, Cy3-labelled for binding assays
Take B2: in series [1], the “specificity … vs splenic myeloid cells” value is “specific for tumor infiltrating myeloid cells”. Also, the “recognition of TIMC” value in series [2] is “able to recognize TIMC”. Moreover, the “staining of tissues from naïve mice” value in series [3] is “showed binding for epithelial cells in the uterus and low binding for pancreatic acinar tissue”. For the same molecule, in series [4], the putative target entry was “No targets have been identified”.

B3: aptamer 14: 2'Fluoro-RNA aptamer, SEQ ID NO: 14, specific for tumor infiltrating myeloid cells (nucleic acid)
chain: GGAGGACGAUGCGGUGUACACUGAUUGCCUUUGUGUUAUGAGCGACAGAUCUGCCAGACGACUCGCUGAGGAUCCGAGA
modifications: 2'-fluoro modified RNA, modified positions not given here, Cy3-labelled for binding assays
B3: the “specificity … vs splenic myeloid cells” value in series [1] was “specific for tumor infiltrating myeloid cells”. Further, the “recognition of TIMC” value in series [2] is listed as “able to recognize TIMC”. For the same molecule, the “staining of tissues from naïve mice” value in series [3] is “recognized intestinal villi and seems to show a nuclear staining of cerebellum, pancreatic acinar tissue, stomach and spleen”. The putative target result in series [4] is given as “No targets have been identified”.

B4: aptamer 11: 2'Fluoro-RNA aptamer, SEQ ID NO: 11, specific for tumor infiltrating myeloid cells; ligand vimentin (nucleic acid)
chain: GGAGGACGAUGCGGGGAAGCAACACUUAGUCGCGAUUGAUACGUGCGCAGUCAUCAGACGACUCGCUGAGGAUCCGAGA
modifications: 2'-fluoro modified RNA, modified positions not given here, Cy3-labelled for binding assays
notes: ligand vimentin
B4: the “specificity … vs splenic myeloid cells” value in series [1] is given as “specific for tumor infiltrating myeloid cells”. Moreover, the “recognition of TIMC” value in series [2] is recorded as “able to recognize TIMC”. For the same molecule, in series [4], the putative target result was “vimentin (VIM P20152)”. In addition, the “specificity for vimentin protein” value with vimentin (VIM) was “confirmed the specificity”.
